From article PMC4036194

Columns and labels:
[1] = target: Full-length C24A β3 mutant with a carboxyl-terminal Myc epitope tag; assay: atomic force microscopy (AFM) imaging; Myc-tagged β3 (wild type or C24A) immunoisolated from tsA 201 detergent extract, diluted to ~40 pM, adsorbed to mica, imaged in air in tapping mode; molecular volumes of particles
[2] = target: mEos2-labeled acid-sensing ion channel hASIC (UniProt P78348); assay: fluorescence photoactivated localization microscopy (FPALM) with pair correlation analysis; mEos2 fusions on the plasma membrane of fixed, transfected HEK293 cells; TIRF-PALM; 30 regions of 1 μm^2 on five cells; proteins per cluster

mEos2-labeled acid-sensing ion channel hASIC (from UniProt P78348 1-528) (natural protein), sequence (P78348 whole entry): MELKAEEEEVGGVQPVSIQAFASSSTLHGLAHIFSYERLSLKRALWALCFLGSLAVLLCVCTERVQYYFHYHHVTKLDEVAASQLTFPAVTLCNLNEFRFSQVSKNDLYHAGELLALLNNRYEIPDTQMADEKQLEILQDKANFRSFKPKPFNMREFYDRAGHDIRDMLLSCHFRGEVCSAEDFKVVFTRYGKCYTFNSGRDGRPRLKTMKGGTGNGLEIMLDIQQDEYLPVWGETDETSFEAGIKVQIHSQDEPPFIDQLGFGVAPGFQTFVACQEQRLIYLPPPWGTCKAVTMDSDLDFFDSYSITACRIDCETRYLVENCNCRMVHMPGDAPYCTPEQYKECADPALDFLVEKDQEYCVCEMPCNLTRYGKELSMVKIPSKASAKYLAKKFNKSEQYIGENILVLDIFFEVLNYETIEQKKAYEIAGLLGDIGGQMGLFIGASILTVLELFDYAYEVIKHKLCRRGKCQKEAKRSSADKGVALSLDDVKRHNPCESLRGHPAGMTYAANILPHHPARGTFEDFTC

Substance “Full-length C24A β3 mutant with a carboxyl-terminal Myc epitope tag (natural protein)” has a stoichiometry N [1] of 2.
“mEos2-labeled acid-sensing ion channel hASIC (from UniProt P78348 1-528) (natural protein)” gave a stoichiometry N [2] of 3.
